Test results taken from patent US20120324606A1.

Experiments:
[1] = target: BBMV proteins (receptor binding sites) in brush border membrane vesicles from fall armyworm (FAW; Spodoptera frugiperda) larval midgut; test: homologous competition: unlabeled Cry1Be against 0.5 nM 125I Cry1Be on FAW BBMVs
[2] = target: BBMV proteins (receptor binding sites) in brush border membrane vesicles from European corn borer (ECB; Ostrinia nubilalis) larval midgut; test: heterologous competition: unlabeled Cry1Be against 0.5 nM 125I Cry1Ab on ECB BBMVs
[3] = target: BBMV proteins (receptor binding sites) in brush border membrane vesicles from fall armyworm (FAW; Spodoptera frugiperda) larval midgut; test: heterologous competition: unlabeled Cry1Be against 0.5 nM 125I Cry1Ab on FAW BBMVs
[4] = target: BBMV proteins (receptor binding sites) in brush border membrane vesicles from European corn borer (ECB; Ostrinia nubilalis) larval midgut; test: heterologous competition: unlabeled Cry1Be against 0.5 nM 125I Cry1Ab on ECB BBMVs; reference is homologous Cry1Ab
[5] = target: BBMV proteins (receptor binding sites) in brush border membrane vesicles from fall armyworm (FAW; Spodoptera frugiperda) larval midgut; test: heterologous competition: unlabeled Cry1Be against 0.5 nM 125I Cry1Ab on FAW BBMVs; reference is homologous Cry1Ab

B1: Cry1Be insecticidal protein (purified truncated Cry toxin) (ligand)
chain: IEDSLCIAEGNNIDPFVSASTVQTGINIAGRILGVLGVPFAGQIASFYSFLVGELWPRGRDPWEIFLEHVEQLIRQQVTENTRDTALARLQGLGNSFRAYQQSLEDWLENRDDARTRSVLYTQYIALELDFLNAMPLFAIRNQEVPLLMVYAQAANLHLLLLRDASLFGSEFGLTSQEIQRYYERQVEKTREYSDYCARWYNTGLNNLRGTNAESWLRYNQFRRDLTLGVLDLVALFPSYDTRVYPMNTSAQLTREIYTDPIGRTNAPSGFASTNWFNNNAPSFSAIEAAVIRPPHLLDFPEQLTIFSVLSRWSNTQYMNYWVGHRLESRTIRGSLSTSTHGNTNTSINPVTLQFTSRDVYRTESFAGINILLTTPVNGVPWARFNWRNPLNSLRGSLLYTIGYTGVGTQLFDSETELPPETTERPNYESYSHRLSNIRLISGNTLRAPVYSWTHRSADRTNTISSDSITQIPLVKSFNLNSGTSVVSGPGFTGGDIIRTNVNGSVLSMGLNFNNTSLQRYRVRVRYAASQTMVLRVTVGGSTTFDQGFPSTMSANESLTSQSFRFAEFPVGISASGSQTAGISISNNAGRQTFHFDKIEFIPITAT
modifications: ^125I iodination (Iodo-Beads) in the radiolabeled form only; sites not stated
[1]
  IC50: 2 nM
[2]
  IC50: 40 nM
[3]
  IC50: 300 nM
[4]
  fold higher concentration for 50% displacement, against Cry1Ab: 80 fold
[5]
  fold greater concentration for 50% displacement, against Cry1Ab: 1000 fold
